Laboratory results: publication PMC3204382

Experiments:
FadR_vc = FadR_vc (Vibrio cholerae, UniProt Q9KQU8 1-279); assay: EMSA
FadR_ec = FadR_ec (Escherichia coli, UniProt P0A8V6 1-239); assay: EMSA
Chain of FadR_ec (P0A8V6 whole entry): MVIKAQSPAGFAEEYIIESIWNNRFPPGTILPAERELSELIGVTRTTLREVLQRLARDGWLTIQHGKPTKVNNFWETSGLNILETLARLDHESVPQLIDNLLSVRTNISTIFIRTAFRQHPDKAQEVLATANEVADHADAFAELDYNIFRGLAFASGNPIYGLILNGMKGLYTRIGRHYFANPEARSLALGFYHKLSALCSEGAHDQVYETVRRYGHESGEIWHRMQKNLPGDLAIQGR

Chain of FadR_vc (Q9KQU8 whole entry): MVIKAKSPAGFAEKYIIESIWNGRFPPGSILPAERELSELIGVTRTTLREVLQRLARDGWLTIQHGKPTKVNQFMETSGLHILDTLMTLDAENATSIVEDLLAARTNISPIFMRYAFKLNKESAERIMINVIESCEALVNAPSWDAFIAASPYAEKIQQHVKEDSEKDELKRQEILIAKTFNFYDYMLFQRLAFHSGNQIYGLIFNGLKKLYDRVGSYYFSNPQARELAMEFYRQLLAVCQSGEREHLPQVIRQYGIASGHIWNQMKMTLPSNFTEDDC

B1: plsB_vc FadR site probe (39 bp) (dsDNA)
DNA 1: TTAAATTAAAAGGTTTGACCAGTTTCTGGTATTCTTGGC
DNA 2: GCCAAGAATACCAGAAACTGGTCAAACCTTTTAATTTAA
- binding result (FadR_vc): binds
- binding result (FadR_ec): binds
